± gives the standard deviation.
Assay: protein stability index of a GFP-peptide fusion (GPS, HEK-293T) (PSI 1-6); higher = more stable
[1] = treatment: DMSO, c terminus: a fixed tail appended
[2] = treatment: MLN4924 1 uM, 8 h, c terminus: a fixed tail appended
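Note: 24-mer peptide tiles fused after GFP, lentivirally expressed, FACS-sorted into six equal bins by GFP/DsRed ratio, decoded by Illumina sequencing, PSI is the read-weighted mean bin number.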

Sequence SGLIYLTNHIAPHARNGLSLKEEH [IKZF1] has a protein stability index [1] of 2.58 ± 0.37 and a protein stability index [2] of 2.71 ± 0.19.
SHLSDTGISALVEIPKNCVVAAVG [WDR41] gave a protein stability index [1] of 3.09 ± 0.31 and a protein stability index [2] of 3.22 ± 0.25.
For SIEVGGSVNFDGETIEGAPPLWAA [FEM1C], the protein stability index [1] was 3.92 ± 0.28 and the protein stability index [2] was 4.12 ± 0.34.
For SILRELDTSMDGTEPPQNPVTPLG [SERTAD3], the protein stability index [1] was 4.35 ± 0.13 and the protein stability index [2] was 4.38 ± 0.18.
Sequence SIPLTPGDTPIRKKEELLFDDGDD [FBF1] has a protein stability index [1] of 5.51 ± 0.54 and a protein stability index [2] of 5.62 ± 0.17.
SKAVFLWNMDKYTMIRKLEGHHHD [WSB1] showed a protein stability index [1] of 2.24 ± 0.16 and a protein stability index [2] of 2.24 ± 0.33.
Work on SKCLVDDGTGRMPTLKKCEDVARP [GALNT9] yielded a protein stability index [1] of 4.57 ± 0.16 and a protein stability index [2] of 4.54 ± 0.21.
In the case of SKDLYLISQMDSDQFIPIWTVANM [LARP4], the protein stability index [1] is reported as 2.51 ± 0.6 and the protein stability index [2] is reported as 1.92 ± 0.36.
Work on SKDWEEVVVESMEQDRIPEVHVPP [MIA2] yielded a protein stability index [1] of 5.09 ± 0.25 and a protein stability index [2] of 4.87 ± 0.26.
Work on SKEDKDLDSSEGSSQEDEDLGLSE [SPANXN3] yielded a protein stability index [1] of 5.57 ± 0.33 and a protein stability index [2] of 5.62 ± 0.28.
SKEKDTQNQNITLDCEGTTNKMKS [KMT2E] showed a protein stability index [1] of 5.29 ± 0.058 and a protein stability index [2] of 5.28 ± 0.45.
SKGWGRNYASIIRRDCMWSGFSAR [MYCL] showed a protein stability index [1] of 2.35 ± 0.39 and a protein stability index [2] of 2.38 ± 0.31.
Sequence SKQRKDFEGMAFLETEQGKPFVSV [GMCL1] has a protein stability index [1] of 3.42 ± 0.14 and a protein stability index [2] of 3.27 ± 0.16.
Work on SKSLCHDEIENLLDSDHRELIGDY [CDC25B] yielded a protein stability index [1] of 4.13 ± 0.26 and a protein stability index [2] of 4.31 ± 0.27.
For SLCYLQLTRQLVSCSSDGGIAVWN [WDFY1], the protein stability index [1] was 2.87 ± 0.57 and the protein stability index [2] was 2.81 ± 0.46.
Work on SLFIALITGAYDTIKHPGGAGAEE [MCOLN1] yielded a protein stability index [1] of 2.45 ± 0.58 and a protein stability index [2] of 2.2 ± 0.44.
For SLGSESEEEEEFYDADEETQMIK [SLC22A15], the protein stability index (treatment: DMSO, c terminus: native) was 5.01 ± 0.35 and the protein stability index (treatment: MLN4924 1 uM, 8 h, c terminus: native) was 4.92 ± 0.37.
In the case of SLGYKEIRKGESRSEALAVDGAGK [CHGA], the protein stability index [1] is reported as 5.03 ± 0.52 and the protein stability index [2] is reported as 4.95 ± 0.31.
For SLKEAEFYDKQLKVLLSGATFLVT [ZFYVE21], the protein stability index [1] was 2.27 ± 0.52 and the protein stability index [2] was 2.55 ± 0.19.
For SLQDASRGDPAHAGLAELGHRLAQ [PBXIP1], the protein stability index [1] was 4.33 ± 0.34 and the protein stability index [2] was 4.38 ± 0.27.
Work on SLWERLEFVNGWYILLVTSDVLTI [MCOLN1] yielded a protein stability index [1] of 3.5 ± 0.68 and a protein stability index [2] of 3.08 ± 0.45.
SMSGGRFRCPTCRHEVIMDRHGVY [TRIM63] showed a protein stability index [1] of 2.24 ± 0.11 and a protein stability index [2] of 2.39 ± 0.35.
Sequence SNCISGVCSVRGGEGRSRGSANDY [KRT71] has a protein stability index [1] of 3.93 ± 0.36 and a protein stability index [2] of 4.23 ± 0.084.
With SNLETIFRIIDSDHSGFISLDEFR [PPEF2] the protein stability index [1] was 2.52 ± 0.24 and the protein stability index [2] was 2.73 ± 0.36.
In the case of SPDLEWHAACLKCAECSQYLDETC [ISL2], the protein stability index [1] is reported as 4.04 ± 0.19 and the protein stability index [2] is reported as 4.03 ± 0.39.
With SPHSPDSSQSSLAQEEEEEDQGRT [DDIT3] the protein stability index [1] was 5.57 ± 0.21 and the protein stability index [2] was 5.54 ± 0.17.
Work on SPVSRNRLAQVKRKILVLDLDETL [CTDNEP1] yielded a protein stability index [1] of 2.6 ± 0.35 and a protein stability index [2] of 2.77 ± 0.36.
In the case of SPVTENSTSLSFLDSCNSLTPKST [MYBL2], the protein stability index [1] is reported as 4.91 ± 0.15 and the protein stability index [2] is reported as 4.77 ± 0.14.
Sequence SPYLGQMINLRRLLLSHIHASSYI [PRAME] has a protein stability index [1] of 2.7 ± 0.51 and a protein stability index [2] of 2.47 ± 0.48.
In the case of SQAHSTLKLANHQRPVSRQVTCLR [TRAF3IP2], the protein stability index [1] is reported as 3.5 ± 0.21 and the protein stability index [2] is reported as 3.61 ± 0.44.
SQDFVGEKLGSGEPSHSVKVHTVP [ATE1] gave a protein stability index [1] of 4.78 ± 0.17 and a protein stability index [2] of 4.83 ± 0.26.
Sequence SQSFSLYVKYQVAIHQDPPDECGK [ATE1] has a protein stability index [1] of 2.75 ± 0.37 and a protein stability index [2] of 2.5 ± 0.35.
SRDGMNIVLNKINQILMEKYLKLQ [INTS3] gave a protein stability index [1] of 3.05 ± 0.81 and a protein stability index [2] of 2.43 ± 0.58.
Work on SREWSGKEKWWDGQRDRKAEHWKH [PBXIP1] yielded a protein stability index [1] of 3.69 ± 0.27 and a protein stability index [2] of 3.91 ± 0.064.
Work on SRLPAKCPGKGAWSIPWKWLFGAT [FKBP8] yielded a protein stability index [1] of 1.99 ± 0.22 and a protein stability index [2] of 2.05 ± 0.28.
With SRVKCDQYWPSRGTETHGLVQVTL [PTPRD] the protein stability index [1] was 2.42 ± 0.39 and the protein stability index [2] was 2.05 ± 0.4.
SSCNGPGQTTGHPYYLRSFLVVLK [FAN1] gave a protein stability index [1] of 2.21 ± 0.47 and a protein stability index [2] of 2.51 ± 0.47.
With SSKSSGDLVDLFDGTSQSTGGSAD [CLINT1] the protein stability index [1] was 5.41 ± 0.22 and the protein stability index [2] was 5.55 ± 0.21.
Sequence SSLLAPAKHLIASMLSKNPEDRPS [PLK2] has a protein stability index [1] of 3.2 ± 0.38 and a protein stability index [2] of 3.37 ± 0.18.
In the case of SSTSGGSGYGFRPSMVSGGYVANS [KRT71], the protein stability index [1] is reported as 3.29 ± 0.31 and the protein stability index [2] is reported as 3.46 ± 0.49.
For STKTPAPCSEFMEPSSDPSLLGEP [SPAG8], the protein stability index [1] was 5.24 ± 0.44 and the protein stability index [2] was 5.25 ± 0.081.
STPLMEAAQEGHLELVKYLLAAGA [ANKRD17] gave a protein stability index [1] of 2.22 ± 0.15 and a protein stability index [2] of 2.48 ± 0.65.
Sequence SVKLRALRSPRKFGVAGRSCQEVL [DFFB] has a protein stability index [1] of 2.73 ± 0.34 and a protein stability index [2] of 3.01 ± 0.54.
SVSRPEGRSWPSAPDDSKAQAHRI [PDLIM4] gave a protein stability index [1] of 4.76 ± 0.21 and a protein stability index [2] of 4.95 ± 0.18.
SWDTESSGSDSGGSSSSSSSSINS [FAM104A] gave a protein stability index [1] of 5.25 ± 0.22 and a protein stability index [2] of 5.1 ± 0.26.

Source: the supplement of paper PMC10567573
